Earlier results, collected in publication PMC4449288.
pKd: −log10 of the molar value.

Molecular target: mAKAPβ (Homo sapiens) (UniProt Q13023)
Experiment: SPR

UniProt Q13023, sequence (Q13023 whole entry): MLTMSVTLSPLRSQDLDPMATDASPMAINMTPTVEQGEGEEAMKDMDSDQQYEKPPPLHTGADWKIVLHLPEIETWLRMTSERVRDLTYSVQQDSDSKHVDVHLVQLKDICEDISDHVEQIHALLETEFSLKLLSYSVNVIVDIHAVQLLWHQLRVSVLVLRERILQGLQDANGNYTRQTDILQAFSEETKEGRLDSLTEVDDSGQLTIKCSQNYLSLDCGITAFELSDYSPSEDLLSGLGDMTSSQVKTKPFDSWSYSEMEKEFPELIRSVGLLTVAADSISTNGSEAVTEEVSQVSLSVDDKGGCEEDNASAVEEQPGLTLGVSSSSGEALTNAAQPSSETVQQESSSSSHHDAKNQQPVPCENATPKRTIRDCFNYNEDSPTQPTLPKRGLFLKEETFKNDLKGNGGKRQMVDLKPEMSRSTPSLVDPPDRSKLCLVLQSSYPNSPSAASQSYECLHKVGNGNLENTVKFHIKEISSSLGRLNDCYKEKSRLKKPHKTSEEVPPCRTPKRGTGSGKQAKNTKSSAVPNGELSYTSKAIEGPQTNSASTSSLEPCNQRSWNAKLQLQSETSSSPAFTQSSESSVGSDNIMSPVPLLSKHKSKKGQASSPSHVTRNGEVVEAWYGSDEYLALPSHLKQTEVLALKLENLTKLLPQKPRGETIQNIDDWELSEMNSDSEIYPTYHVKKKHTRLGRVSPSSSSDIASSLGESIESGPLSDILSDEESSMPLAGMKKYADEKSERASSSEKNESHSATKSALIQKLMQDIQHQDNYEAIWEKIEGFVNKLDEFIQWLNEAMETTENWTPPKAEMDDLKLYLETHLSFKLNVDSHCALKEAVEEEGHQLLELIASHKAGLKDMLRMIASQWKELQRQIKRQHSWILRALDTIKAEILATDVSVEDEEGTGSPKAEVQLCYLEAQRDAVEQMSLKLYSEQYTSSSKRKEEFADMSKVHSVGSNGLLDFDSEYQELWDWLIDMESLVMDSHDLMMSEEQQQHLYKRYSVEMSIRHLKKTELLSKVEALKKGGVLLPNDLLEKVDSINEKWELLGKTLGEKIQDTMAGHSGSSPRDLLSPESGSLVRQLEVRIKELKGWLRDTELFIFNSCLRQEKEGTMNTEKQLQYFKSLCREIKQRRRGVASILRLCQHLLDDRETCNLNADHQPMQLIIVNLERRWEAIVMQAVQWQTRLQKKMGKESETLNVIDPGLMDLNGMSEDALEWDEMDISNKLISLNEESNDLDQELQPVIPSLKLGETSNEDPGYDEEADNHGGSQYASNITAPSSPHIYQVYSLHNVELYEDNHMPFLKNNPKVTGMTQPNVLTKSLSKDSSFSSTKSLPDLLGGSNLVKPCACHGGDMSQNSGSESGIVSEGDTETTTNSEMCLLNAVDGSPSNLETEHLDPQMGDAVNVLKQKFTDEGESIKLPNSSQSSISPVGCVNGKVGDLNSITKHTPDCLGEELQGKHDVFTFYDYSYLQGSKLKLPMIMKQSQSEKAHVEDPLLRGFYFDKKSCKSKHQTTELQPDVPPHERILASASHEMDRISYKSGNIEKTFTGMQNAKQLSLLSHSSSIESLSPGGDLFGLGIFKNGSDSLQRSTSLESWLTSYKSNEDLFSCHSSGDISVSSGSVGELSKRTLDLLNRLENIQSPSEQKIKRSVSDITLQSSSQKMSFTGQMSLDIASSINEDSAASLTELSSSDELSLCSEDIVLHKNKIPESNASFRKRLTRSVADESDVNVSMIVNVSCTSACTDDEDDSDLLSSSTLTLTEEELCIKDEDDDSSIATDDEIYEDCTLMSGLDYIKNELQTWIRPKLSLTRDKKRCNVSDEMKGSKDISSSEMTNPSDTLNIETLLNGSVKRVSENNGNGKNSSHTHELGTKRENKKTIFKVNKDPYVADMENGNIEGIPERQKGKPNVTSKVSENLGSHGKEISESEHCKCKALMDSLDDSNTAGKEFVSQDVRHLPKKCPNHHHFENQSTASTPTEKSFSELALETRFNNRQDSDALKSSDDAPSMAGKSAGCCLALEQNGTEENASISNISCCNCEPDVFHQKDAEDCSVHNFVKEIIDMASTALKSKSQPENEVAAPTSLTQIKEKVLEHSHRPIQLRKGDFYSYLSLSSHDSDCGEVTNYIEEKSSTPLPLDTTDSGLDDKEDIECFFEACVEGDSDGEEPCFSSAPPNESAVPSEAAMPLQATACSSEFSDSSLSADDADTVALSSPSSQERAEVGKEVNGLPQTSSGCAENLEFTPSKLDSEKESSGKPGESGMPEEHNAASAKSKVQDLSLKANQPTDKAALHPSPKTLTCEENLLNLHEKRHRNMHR

RSK3 (from UniProt Q15349)
pKd: 8.80
